Test [1] concerns the target T1, mouse Siglec15-his protein (mouse).
T1 construct: In house made
T1 chain: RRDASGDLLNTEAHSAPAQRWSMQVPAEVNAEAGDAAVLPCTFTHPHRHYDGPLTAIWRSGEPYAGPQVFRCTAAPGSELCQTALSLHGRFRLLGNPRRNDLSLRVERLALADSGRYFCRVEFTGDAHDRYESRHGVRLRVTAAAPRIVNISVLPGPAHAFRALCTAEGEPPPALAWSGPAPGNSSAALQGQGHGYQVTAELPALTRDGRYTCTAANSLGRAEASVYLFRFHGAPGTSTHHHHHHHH
As to the kind of experiment: indirect ELISA on coated mouse Siglec15-his. The protocol:
The anti-Siglec15 antibodies' cross-reactions to cynomolgus or mouse Siglec15 proteins were measured. Briefly, 96-well micro plates were coated with 100 μl of 2 μg/ml cynomolgus Siglec15-his protein (in house made with SEQ ID NO: 21), or 2 μg/ml mouse Siglec15-his protein (in house made with SEQ ID NO: 22) in carbonate/bicarbonate buffer (pH 9.6) for 2 hours at 37° C. ELISA plates were washed once with wash buffer (PBS+0.05% v/v Tween-20, PBST) and then blocked with 200 μl/well blocking buffer (5% w/v non-fatty milk in PBST) overnight at 4° C. Plates were washed 4 times and incubated with 100 μl serially diluted anti-Siglec15 antibodies of the disclosure or controls (starting at 66.7 nM, 5-fold serial dilution in PBST with 2.5% w/v non-fatty milk) for 40 minutes at 37° C. […] The reaction was stopped 4 minutes later at room temperature with 50 μl 1M H₂SO₄, and the absorbance of each well was read on a microplate reader using dual wavelength mode with 450 nm for TMB and 630 nm as the reference wavelength, then the OD (450-630) values were plotted against antibody concentration. Data was analyzed using Graphpad Prism software and EC₅₀ values were reported.

Test [2] concerns the target T2, human Siglec15 on human-siglec15-2D3-1E1 cells (human, UniProt Q6ZMC9 20-328).
T2 construct: whole, on cells; Transfected HEK-293 cells; also called cell surface human Siglec15
T2 sequence (looked up): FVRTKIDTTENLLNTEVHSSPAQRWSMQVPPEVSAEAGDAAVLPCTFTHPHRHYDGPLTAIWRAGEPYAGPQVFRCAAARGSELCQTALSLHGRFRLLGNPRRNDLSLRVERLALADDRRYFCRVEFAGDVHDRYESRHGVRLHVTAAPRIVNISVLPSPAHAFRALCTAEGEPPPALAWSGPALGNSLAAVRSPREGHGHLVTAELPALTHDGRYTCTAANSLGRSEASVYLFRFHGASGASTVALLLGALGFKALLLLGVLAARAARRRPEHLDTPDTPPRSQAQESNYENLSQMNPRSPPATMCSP
Briefly: cell based binding FACS on human-siglec15-2D3-1E1 cells. The protocol:
The binding activities of the anti-Siglec15 antibodies to cell surface Siglec15 were tested by flow cytometry (FACS), using in-house prepared human-siglec15-2D3-1E1 cells expressing human Siglec15 (amino acid residues Met1-Pro328 of uniprot #Q6ZMC9) on cell membranes. The human-siglec15-2D3-1E1 cells were prepared by transfecting HEK-293 cells (ATCC #CRL-1573) with pCMV-T-P plasmids inserted with human Siglec15 coding sequence between EcoRI and XbaI sites, following the instruction of lipofectamine 3000 transfection reagent (Thermo Fisher). The human-siglec15-2D3-1E1 cells were harvested from cell culture flasks, washed twice and re-suspended in phosphate buffered saline (PBS) containing 2% v/v Fetal Bovine Serum (FACS buffer). 2×10⁵ cells per well in 96 well-plates were incubated in 100 μL serially diluted anti-Siglec15 antibodies or controls (starting at 66.67 nM, 5-fold serial dilution) in FACS buffer for 40 minutes on ice. […] Following a 40-minute incubation at 4° C. in dark, cells were washed three times and re-suspended in FACS buffer. Fluorescence was measured using a Becton Dickinson FACS Canto II-HTS equipment. Data was analyzed using Graphpad Prism software and EC₅₀ values were reported.

In test [3] the target is T3, human Siglec15-Fc protein (human).
T3 construct: In house made; also called recombinant human Siglec15 protein with human IgG1 Fc at the C-terminus
Briefly: competitive ELISA: coated human Siglec15-Fc, blocked ligand biotin-labeled human LRRC4C-Fc. The procedure: (§1) Serially diluted anti-Siglec15 antibodies or the controls (starting at 66.67 nM with a 5-fold serial dilution) in PBST with 2.5% w/v non-fatty milk were added to the Siglec15-Fc bound plates, 100 μl per well, and incubated with the human Siglec15-Fc protein at 37° C. for 40 minutes. Plates were washed 4 times again using wash buffer, then added and incubated for 40 minutes at 37° C. with 100 μl/well 290 ng/ml biotin-labeled human LRRC4C-Fc protein (prepared in-house with SEQ ID NO: 23). Plates were washed again using wash buffer. Thereafter, the plates were added with 100 μl/well streptavidin conjugated HRP (1:5000 dilution in PBST buffer, Jackson Immunoresearch, Cat #016-030-084) and incubated for 40 minutes at 37° C. Plates were washed again using wash buffer. Finally, TMB was added and the reaction was stopped using 1M H₂SO₄, and the absorbance of each well was read on a microplate reader using dual wavelength mode with 450 nm for TMB and 630 nm as the reference wavelength, then the OD (450-630) values were plotted against antibody concentration. Data was analyzed using Graphpad Prism software and IC₅₀ values were reported.
Target sequence in this assay (chain, as listed by the source limits assumed): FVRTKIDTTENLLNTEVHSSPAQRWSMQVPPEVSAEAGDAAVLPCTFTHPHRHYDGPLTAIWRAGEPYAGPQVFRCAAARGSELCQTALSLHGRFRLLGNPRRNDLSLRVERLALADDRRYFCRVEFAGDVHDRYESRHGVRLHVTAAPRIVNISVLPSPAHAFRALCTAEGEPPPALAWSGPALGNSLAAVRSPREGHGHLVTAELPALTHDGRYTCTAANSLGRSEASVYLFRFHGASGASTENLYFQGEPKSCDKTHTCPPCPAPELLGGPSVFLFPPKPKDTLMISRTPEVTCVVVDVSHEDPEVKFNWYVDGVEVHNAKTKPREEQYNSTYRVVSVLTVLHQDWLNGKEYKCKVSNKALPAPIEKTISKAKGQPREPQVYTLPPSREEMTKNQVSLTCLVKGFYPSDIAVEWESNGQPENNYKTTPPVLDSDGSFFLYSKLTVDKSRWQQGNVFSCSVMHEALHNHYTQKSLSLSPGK

Test [4] has as its target T3, human Siglec15-Fc protein. The test is described as above. The protocol: as §1
This is another data set of the same source.

Read-outs that look alike come from different tables or passages of the source.

B1: anti-Siglec15 benchmark (ch5G12) (antibody, human IgG1, kappa, V domains shown)
VH: QVQLQQPGAELVKPGASVKMSCKASGYTFTSYWITWVIQRPGQGLEWIGDIYCGSDTMHYNEKFKNKATLTVDTSSSTAYMQLSSLTSEDSAVYYCARWWDYGSSYDYFDYWGQGTTLTVSS
VL: DIKMTQSPSSMYASLGERVTITCKASQDINSYLSWFQQKPGKSPKTLIYRANRLVDGVPSRFSGSGSGQDYSLTISSLEYEDMGIYYCLQYDEFPYTFGGGTKLEIKR
notes: ch5G12 (US 20190202912A1); also called BM; Siglec15-ch5G9
What is called EC50 is the concentration that produces a half-maximal response. By IC50 is commonly meant the concentration at which inhibition is half-maximal. Read a low IC50 as greater potency. In the case of B1, the concentration giving a half-maximal response (EC50) in test [1] amounted to 419 pM; in test [2] it was 15500 pM. The IC50 in test [3] is 792 pM; in test [4], 855 pM.
